Measured values published in the supplement of paper PMC7125110.
± gives the standard error. Fewer inactive variants are shown than the library holds.

B1: glmS ribozyme (parent)
chain: AUAAAAGCGCCAGAACUACAGAAAUGUAGUUGACGAGGAGGAGGUUUAUCGAAUUUUCGGCGGAUGCCUCCAAA

Tests used:
Conditions in all cases: with glucosamine-6-phosphate
[1] = variants of: B1; experiment: self-cleavage kobs at 40 uM GlcN6P; higher = faster cleavage; RNA array
Method in brief: (§1)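 Weighted Michaelis–Menten fits across concentrations supplied kcat and KM, based on kobs from one- or two-exponential decay fits to normalised per-tile medians. The data came from barcoded ribozyme variants transcribed in situ by E. coli RNA polymerase on sequenced MiSeq chips and tracked at 37 °C by a hybridised Cy3 probe. Glucosamine-6-phosphate (40 μM to 10 mM) in HEPES/KCl/Mg(OAc)2 buffer was flowed in.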

[2] = variants of: B1; experiment: self-cleavage kobs at 160 uM GlcN6P; higher = faster cleavage; RNA array
Method in brief: as §1

[3] = variants of: B1; experiment: self-cleavage kobs at 640 uM GlcN6P; higher = faster cleavage; RNA array
Method in brief: as §1

[4] = variants of: B1; experiment: self-cleavage kobs at 2500 uM GlcN6P; higher = faster cleavage; RNA array
Method in brief: as §1

[5] = variants of: B1; experiment: self-cleavage kobs at 10000 uM GlcN6P; higher = faster cleavage; RNA array
Method in brief: as §1

Variant	self-cleavage kobs at 40 uM GlcN6P [1]	self-cleavage kobs at 160 uM GlcN6P [2]	self-cleavage kobs at 640 uM GlcN6P [3]	self-cleavage kobs at 2500 uM GlcN6P [4]	self-cleavage kobs at 10000 uM GlcN6P [5]
AUAAAAGCGCCAGAACUACAGAAAUGUAGUUGAAGAGGAGGAGGUUUAUCGGAUUUUCGGCGGAUGCCUCCAAA	< 1e-05 s⁻¹	< 1e-05 s⁻¹	< 1e-05 s⁻¹	< 1e-05 s⁻¹	< 1e-05 s⁻¹
AUAAAAGCGCCGGAACUACAGAAAUGUAGUUGAGGAGGAGCAGGUUUAUUGAAUAUUCGGCGGAUGCCUCCAAA	< 1e-05 s⁻¹		< 1e-05 s⁻¹		
AUAAAAGCGCCAGAACUACAGAAAUGUAGUUGACAAGGAGGAGGUUAAUCGAAUUUCCGGCGGAUACCUCCAAA	< 1e-05 s⁻¹				
AUAAAUGCGCCCGAACUACAGAAAUGUAGUUGACGAGGAGGAGGAUUAUCGCAUUUUCGGCGGAUGCCUCCAAA	< 1e-05 s⁻¹			< 1e-05 s⁻¹	< 1e-05 s⁻¹
AUAAAAGCGCCAGAUCUACAGAAAUGUAGUUGACGAGGAGGAGGUUUAUCGAAUUUUCGUCGGAUGCCUCCAAA	< 1e-05 s⁻¹	< 1e-05 s⁻¹	< 1e-05 s⁻¹	< 1e-05 s⁻¹	< 1e-05 s⁻¹
AUAAAAGCCCUAGAACUACAGAAAUGUAGUCGACGGGAAGGAGGUUUAUGGAAUUUUCGGCGGAUGCCGGCAAA	0.00075 ± 0.00022 s⁻¹				0.000818 ± 0.00021 s⁻¹
AUAAACGCGCCAGAUCUACAGAAAUGUAGUUGACGCGGAGGAAGUGUAUUGAUUUUUCGGUGGAUGCCUCCAAA	< 1e-05 s⁻¹		< 1e-05 s⁻¹	< 1e-05 s⁻¹	< 1e-05 s⁻¹
AUAAAAGUUCCAGAACUACAGAAAUGUAGUUGACGAGGAGGAGGUUUAUCGAAUUUUCGGCGGAUGCCUCCAAA	< 1e-05 s⁻¹	< 1e-05 s⁻¹	< 1e-05 s⁻¹	< 1e-05 s⁻¹	
AUAAAAGCGCCAGAACUACAGAAAUGUAGUUGACGAGGAGGAGGUUUAUCGAAUUAUCGGCUGAUGCCUCCAAA	< 1e-05 s⁻¹		< 1e-05 s⁻¹		
AUAAAAGCGCCAGAACUACAGAAAUGUAGUUGACGAGUAGGAGGUGUAUCGAAUUUUCGCCGGAUGCCUCCAAA	< 1e-05 s⁻¹	< 1e-05 s⁻¹	< 1e-05 s⁻¹	< 1e-05 s⁻¹	
AUAAAAGCGCCACAACUACAGAAAUGUAGUUGACGAGGAGGAGGUUUACCGAAUUUUCGGCGGAUGCCUCCAAA	< 1e-05 s⁻¹			< 1e-05 s⁻¹	< 1e-05 s⁻¹
AUAAAAGCCCCAGAACUACAGAAAUGUAGUUGACGAGGAGGAGGUUUAUCGAAUUUCCGGCGGAUGCCUCAAAA	< 1e-05 s⁻¹				< 1e-05 s⁻¹
